This note sets out measurements from patent US9157088B2, “Transferases, epimerases, polynucleotides encoding these and uses thereof” (priority 2007, dated 2015).

The target in data set [1] is T1, kiwifruit GDP-L-Galactose Guanyltransferase EST 319998 (Actinidia chinensis, UniProt A0A2R6QD99). In words: Fixed time transferase assay, aliquots measured using coupling enzymes. It is filed as biochemical. Conditions: acceptor Mannose-1-P; 0.057 ug protein. The method, then: The assay for GDP-L-Galactose-1-Phosphate Guanyltransferase was run in 20 mM TrisCl, pH 8.0, GDP-L-Galactose, with 1 mM D-Mannose-1-Phosphate. GDP-L-Galactose was either used directly from the Glycoteam product (in which case high backgrounds were observed due to contaminating L-Galactose-1-Phosphate) or GDP-L-Galactose was generated using the epimerase. In the latter case, 0.21 mg of epimerase was incubated with GDP-D-Mannose in 20 mM Tris Cl pH 8 in a total volume of 400 μL (see Wolucka et al., 2001) for 30 minutes at 20 C and then used directly in the assay at a 1 to 20 dilution. Assays were either terminated after 10 minutes by heating to 100 C for three minutes, or directly coupled to the phosphatase and L-Galactose dehydrogenase to measure product formation during the assay. […] Assays for L-Galactose were linear with added L-Galactose-1-Phosphate over the range measured. […]
(§1) The applicants used two assays to characterise the enzyme, using two sources of the substrate GDP-L-Galactose. […] The applicants either measured the product formed by adding the coupling enzymes in the assay and measuring the time course of NADH formed, or by stopping the reaction after 10 minutes by boiling for 3 minutes and centrifuging. […]

The format of data set [2] is physicochemical. The source says:
GDP-L-Galactose (˜50% pure, contaminated with the breakdown products GDP and L-Galactose-1-Phosphate as shown by HPLC and LCMS) and L-Galactose-1-Phosphate were purchased from Glycoteam, Hamburg, Germany. […] Other biochemicals were purchased from Sigma.

Data set [3] deals with T1, kiwifruit GDP-L-Galactose Guanyltransferase EST 319998. In words: Fixed time transferase assay, aliquots measured by LCMS. The data set is classed as biochemical. Conditions: acceptor Mannose-1-P; 0.057 ug protein. The method, then:
(§2) The assay for GDP-L-Galactose-1-Phosphate Guanyltransferase was run in 20 mM TrisCl, pH 8.0, GDP-L-Galactose, with 1 mM D-Mannose-1-Phosphate. GDP-L-Galactose was either used directly from the Glycoteam product (in which case high backgrounds were observed due to contaminating L-Galactose-1-Phosphate) or GDP-L-Galactose was generated using the epimerase. In the latter case, 0.21 mg of epimerase was incubated with GDP-D-Mannose in 20 mM Tris Cl pH 8 in a total volume of 400 μL (see Wolucka et al., 2001) for 30 minutes at 20 C and then used directly in the assay at a 1 to 20 dilution. Assays were either terminated after 10 minutes by heating to 100 C for three minutes, or directly coupled to the phosphatase and L-Galactose dehydrogenase to measure product formation during the assay. Heat terminated assays were cooled on ice, centrifuged to remove precipitated protein and L-Galactose assayed using the coupling enzymes described above (see also (Laing et al., 2004)). Assays for L-Galactose were linear with added L-Galactose-1-Phosphate over the range measured. Backgrounds were run using the empty vector control, which gave the same result as a boiled enzyme control.
As an alternative assay, LCMS was used to identify the forward reaction described above as well measure as the reverse pyrophosphorylase reaction where GTP (1 mM) and L-Galactose-1-Phosphate were incubated as above and the formation of GDP-L-Galactose followed. GDP-D-Mannose and GDP-L-Galactose were separated by HPLC before MS. LC-MS employed an LTQ linear ion trap mass spectrometer fitted with an ESI interface (ThermoQuest, Finnigan, San Jose, Calif., USA) coupled to an EttanTM MDLC (GE Healthcare Bio-Sciences). Separation of GDP-D-Mannose and GDP-L-Galactose was achieved using a Hypercarb column (Thermo Electron, USA), 100×2.1 mm maintained at 40 C. Solvents were (A) 50 mM ammonium acetate and (B) acetonitrile and the flow rate was 200 uL/min. The initial mobile phase, 5% B was held for 3 min, then ramped linearly to 20% B at 11 min, held for 5 min, then ramped linearly to 70% B at 19 min and held for 5 min before resetting to the original conditions. Retention times for GDP-D-Mannose and GDP-L-Galactose were 16.8 min and 17.5 min, respectively.
MS data was acquired in the negative mode using both a selective reaction monitoring (SRM) method SRM m/z 604>m/z 344, 362, 424, 442 and a selected ion monitoring (SIM) method SIM m/z 604. This SIM method monitors only the (M-H)— ion for GDP-D-Mannose and GDP-L-Galactose while the SRM method monitors the distinctive daughter ions formed by fragmenting the precursor ion (M-H)— for both compounds. Both methods maximise sensitivity by screening out any chemical noise from other compounds present. The ESI voltage, capillary temperature, sheath gas pressure, sweep gas and auxiliary gas were set at −10 V, 350° C., 25 psi, 3 psi, and 3 psi, respectively. Separation of D-Mannose-1-Phosphate and L-Galactose-1-Phosphate was achieved isocratically using a Hypercarb column (Thermo Electron, USA), 100×2.1 mm maintained at 40° C. Solvents were (A) 20 mM ammonium acetate and (B) methanol and the flow rate was 200 uL/min. Using a mobile phase of 2% B the retention times for D-Mannose-1-Phosphate and L-Galactose-1-Phosphate were 4.3 min and 4.9 min, respectively. MS data was acquired in the negative mode using both a selective reaction monitoring (SRM) method SRM m/z 259>m/z 79, 97 and a selected ion monitoring (SIM) method SIM m/z 259. […]

Data set [4] relates to Nicotiana tabacum ‘Samsun’. Description: Leaf ascorbate in stably transformed tobacco. The data set is classed as in vivo. To be noted: two kanamycin resistant lines; FIG. 22. As to the method:
Tobacco was transformed with 319998 and Kanamycin resistant lines selected. These plants were transferred to soil and grown until several leaves were expanded. Ascorbate and gene expression was measured in these leaves (FIG. 22).
Nicotiana tabacum ‘Samsun’ was transformed using Agrobacterium tumefaciens strain GV101 carrying the pHex vector containing EST 319998. Methods used were as described by Guerineau et al (1990), except kanamycin was used instead of sulphonamide selective agents at the rate of 100 mg.L-1.

The test system of data set [5] is Tobacco (Nicotiana benthamiana) leaves. In words: Leaf ascorbate after transient transformation of tobacco leaves. It is filed as in vivo. The source says:
(§3) Tobacco (Nicotiana benthamiana) was transiently transformed with Agrobacterium containing the kiwifruit gene for GDP-L-Galactose Guanyltransferase (EST 319998) cloned in pGreen (Hellens et al., 2000) mixed with Agrobacterium containing the gene for the silencing suppressor P19 as previously described (Hellens et al., 2005). Controls were run using Agrobacterium containing P19 in pGreen alone. Tobacco leaves were harvested 9 days after transformation and frozen in liquid nitrogen.
Ascorbate was extracted as described previously in metaphosphoric acid without reducing agent (Davey et al., 2003; Rassam and Laing, 2005). […]

The test system is the same in data set [6]. Description: Transferase activity in extracts of transiently transformed tobacco leaves. It is filed as in vivo. To be noted: transient expression in pGreen mixed with P19. The method, then:
The transferase activity in tobacco leaves was measured by extracting liquid nitrogen ground leaves in approximately five volumes of TrisCI pH 8.0, 2 mM DTT and 1 mM EDTA, centrifuging, desalting the supernatant using a NAP desalting column equilibrated with the same buffer and assaying the enzyme using the coupled assay described above. Protein in the extracts was measured using the Biorad Bradford Coumassie assay (Bradford, 1976) using BSA as a standard.
as §3

The next data set has as its system Arabidopsis plants. Description: Leaf ascorbate in stably transformed Arabidopsis plants. It is filed as in vivo, Arabidopsis thaliana. Conditions: third generation, kanamycin resistant plants; FIGS. 20A-20B. As to the method: In the second generation, up to 12 plants from each line, selected from the kanamycin plates, were grown to a standard size of a complete rosette of leaves in the glasshouse and ascorbate measured (FIG. 19). […] The increased ascorbate ranged up to over 4 times the normal level of ascorbate in Arabidopsis leaves.
Selected plants from the second generation were taken on to the next generation. […] Again the applicants observed plants with leaf ascorbate over 4 times the control level (FIGS. 20A-20B), but again within a line with high ascorbate progeny, there were always plants with high and low ascorbate in spite of all plants coming from a high ascorbate kanamycin resistant parent. […] Regions of complete sequence identity are found, when the 319998 and Arabidopsis sequence is aligned (data not shown). This could account for the apparent silencing seen.

Substrate in data set [7]: O=P(O)(O)O[C@H]1O[C@H](CO)[C@@H](O)[C@H](O)[C@@H]1O
In words: purified protein, by the assay type. To be noted: other: varying concentrations of the guanyl acceptor; continuous coupled assay; FIG. 3; pH 8.0; 20.0 °C.

A short description of data set [8]: Transferase activity of E. coli expressed enzymes (coupled reaction and LCMS). The data set is classed as biochemical. Conditions: enzyme expressed in E. coli, His tag purified. The method, then: Expression of genes in E. coli. The EST 319998 from young fruit of Actinidia chinensis and At4g26850 were each cloned into pET30A (Novagene, USA), their sequence checked and expressed in E. coli. The N terminal His6 tag was used to purify the protein. An empty vector control was expressed and purified in parallel. Techniques were essentially as described earlier (Laing et al., 2004). In much of this work the His-protein was further purified on a 5 mL HiTrap Q FF column (GE Healthcare), and identical results were obtained with both preparations.
as §2, with “control. […]” for “control.”
as §1

What is called Km is the concentration of substrate that gives half-maximal velocity.

Consider `Nc1nc2c(ncn2[C@@H]2O[C@H](COP(=O)(O)OP(=O)(O)OC3O[C@@H](CO)[C@@H](O)[C@@H](O)[C@@H]3O)[C@@H](O)[C@H]2O)c(=O)[nH]1` (stereo partly drawn) [GDP-L-Galactose], for which, in data set [1], the “transferase activity, Coupled assay” value stood at 0.017 nmoles/sec/ug protein. The acid stability entry in data set [2] is recorded as “extremely acid labile”. The “transferase activity, LCMS” value in data set [3] was “high BG”.

B1: kiwifruit GDP-L-Galactose Guanyltransferase EST 319998 (Actinidia chinensis var. chinensis) (protein)
chain: MLKIKRVPTVVSNFQKDEAEDGARSGGGCGRNCLQKCCIQGAKLPLYAFKRVKEVVGEKGLLAVDDEEAPVAFLDSLLLGEWEDRVQRGLFRYDVTACETKVIPGEYGFIAQLNEGRHLKKRPTEFRVDKVLQPFDESKFNFTKVGQEEVLFQFEASDDNEVQFFPNAPVDVENSPSVVAINVSPIEYGHVLLIPRILECLPQRIDRESFLLALHMAAEAGNPYFRLGYNSLGAFATINHLHFQAYYLAVPFPIEKAPTRKITTLNGGVKISDLLNYPVRGLVFEGGNSLEDLSNAVSDSSICLQGNNIPYNVLISDSGKCIFLLPQCYAEKQALGEVSSDLLDTQVNPAVWEISGHMVLKRKEDYEEASEGNAWRLLAEVSLSEERFEEVKALIFEAISCADDRSGSTAENLLEEPDDNPQSRKVANDALNKGSHRGMVPGKQECLVQH
Consider B1, for which the “increase in leaf ascorbate” value in [4] came to 60%. Further, the “effect on leaf ascorbate” value in data set [5] (His tag in front of the transferase sequence in pGreen, FIGS. 17A-17B) is recorded as “active in increasing leaf ascorbate”; in data set [5] (transient expression with P19), “usually was the most effective gene”; in data set [5] (transient expression with P19, listed as 319998_Ac), “increased ascorbate levels in the leaf”. The “function of construct in raising leaf ascorbate” value in data set [5] (transferase cloned into pGreenII 0229 62-SK (bialaphos resistance), FIGS. 17A-17B) was “fully functional”. Moreover, the “increase in leaf ascorbate compared to control leaves” value is recorded as “three fold increase in ascorbate” in data set [5] (transient expression with P19, listed as 319998) and about 3 fold in data set [5] (transient expression with P19, listed as transferase). The “Leaf ascorbate levels, average” value in [5] (transient expression with P19, mean of three plants, three leaves per plant, harvested 9 days after transformation) came out at 102.0. In data set [5] (transient expression with P19, relative to controls), the “Relative amount of ascorbate” value was found to be 3.0. Also, the “GDP-L-Galactose Guanyltransferase activity in leaf extract” value in data set [6] is “measurable activity could be measured in the extract of the leaves”. The “leaf ascorbate relative to the control level” value in the data set on Arabidopsis plants is “over 4 times”. Besides, in data set [7], the Km worked out at 110 ± 30 µM. Further, the “GDP-L-Galactose Guanyltransferase activity of the expressed enzyme” value in data set [8] was “could catalyse the conversion of GDP-L-Galactose to L-Galactose-1-P”.
